Test results reported in the supplement of paper PMC12042874.
± gives the uncertainty stated by the source.

Assay: amyloid nucleation score (Sup35N fusion, yeast selection) (log enrichment); library NNK2; higher = more nucleation; inactive = no reads after selection
Procedure, shortened: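 The nucleation score is the log enrichment of output over input reads, calculated with DiMSum and centred on the mode score of non-aggregating sequences. Sequences with under 100 input reads were excluded. Reads came from Illumina sequencing of plasmid inserts from psi-negative yeast expressing Sup35N fused to peptides of 20 random codons, induced 24 hours with 100 μM copper sulfate and grown 7 days at 30°C without adenine and uracil.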

WTTLGGPVGREENGRRQAEG
amyloid nucleation score: 1.17 ± 0.23

PPHCTGHLV
amyloid nucleation score: 0.183 ± 1

MYLPMVDVIEVSYSVNLERG
amyloid nucleation score: -0.311 ± 0.32

GSYMS
amyloid nucleation score: 3.54 ± 0.065

IYMGISVCSICYV
amyloid nucleation score: 6.34 ± 0.071

SSFFPRQ
amyloid nucleation score: -0.767 ± 0.76

QGELYRSANLLFVAEVSSWR
amyloid nucleation score: 0.561 ± 0.64

IKAFWS
amyloid nucleation score: inactive

QVSLMKVGWITMTPLGLHSL
amyloid nucleation score: 4.03 ± 0.069

EKNTMDF
amyloid nucleation score: 1.64 ± 0.19

QETFDFCM
amyloid nucleation score: -1.65 ± 0.64

ILHPADQNSCT
amyloid nucleation score: -1.26 ± 0.34

RGNMTLIETALAIVQSFSNH
amyloid nucleation score: 9.064 ± 0.035

AYKCFGVLCFRRNRSGKEGL
amyloid nucleation score: -0.318 ± 0.76

LYIVDPSTASKAHTSSLPKS
amyloid nucleation score: -0.324 ± 0.55

NCASWLYGSCACVGLLDLFE
amyloid nucleation score: -0.626 ± 0.41

VWLGVTSSPIIMSKNMSNVV
amyloid nucleation score: 0.404 ± 0.36

SFFNRESGIWWRGSSWFVLV
amyloid nucleation score: -0.711 ± 0.48

LSAVWLWVNFFQHMTNRC
amyloid nucleation score: -1.71 ± 0.76

TRINMGIFCLQDKVPMLRDE
amyloid nucleation score: 3 ± 0.082

CIFWLDYATFDTGLSLYMCE
amyloid nucleation score: -0.094 ± 1

LTSGQEGG
amyloid nucleation score: 0.047 ± 0.45

AYLLWVRYIYEHDSTIGWLI
amyloid nucleation score: inactive

DSPQHHECIMVWL
amyloid nucleation score: 4.38 ± 0.064

LNGCGVLRPVR
amyloid nucleation score: 5.89 ± 0.067

LCSCANCLYSFFTG
amyloid nucleation score: 8.04 ± 0.023

DDSMHWFYLLGWIPVGSKGG
amyloid nucleation score: inactive

RTALLP
amyloid nucleation score: 1.58 ± 0.52

SGVLVCVWTRS
amyloid nucleation score: -1.24 ± 0.49

LMHFGMKEEDYWKPCSICIS
amyloid nucleation score: inactive

GSQVLCGLRLPARGFWSYIM
amyloid nucleation score: 0.254 ± 0.3

YIDGDNYHGILCHSRV
amyloid nucleation score: 3.86 ± 0.11

YLLSMVRKDPVSRVSLKKGW
amyloid nucleation score: 0.566 ± 0.66

EVNRAPNVSIVYRRNSGTAD
amyloid nucleation score: -0.154 ± 0.4

DNQGSLDNSSLCTVYSGFSV
amyloid nucleation score: inactive

EVMCDAKLAGCVTSRPWLSR
amyloid nucleation score: 0.925 ± 0.34

VVHSFEWNLRRLSTWWRWGF
amyloid nucleation score: 0.217 ± 0.31

DYWFLCAICLWVFTGMYLVE
amyloid nucleation score: 0.01 ± 0.28

GRAYHESLSGDFVLFSSRRC
amyloid nucleation score: -0.815 ± 0.63

YSMPRSN
amyloid nucleation score: -0.548 ± 0.45

TGLWDVCQVLIRFRNVFWRN
amyloid nucleation score: 3.06 ± 0.079

LWGVYD
amyloid nucleation score: -0.212 ± 0.65

RINQLLTPLTWQERGP
amyloid nucleation score: 3.38 ± 0.06

FLWVLIQANYLLTEMELSSG
amyloid nucleation score: -0.447 ± 1.1

VSNRVLEMVSKEVASAKNQL
amyloid nucleation score: 0.288 ± 0.34

MNGVLFMCFIH
amyloid nucleation score: 3.86 ± 0.085

RAACFSAAHRTDWTWPDGDM
amyloid nucleation score: 2.49 ± 0.19

YVCRSGWDLVAKFGILRREE
amyloid nucleation score: 2.17 ± 0.2

IYLTLNGILAICASRAWAAK
amyloid nucleation score: 0.094 ± 0.77

SMQFLCYKKLC
amyloid nucleation score: -0.565 ± 1.1

PNSYAETDWISLCSDSMSWH
amyloid nucleation score: 0.721 ± 0.74

ANGVSILDFRKHATFWWWET
amyloid nucleation score: -0.103 ± 0.29

YGFGHRGNMTAWLSMATKTF
amyloid nucleation score: -0.109 ± 0.76

VYPFSLSVAYVNRLLYYTVQ
amyloid nucleation score: 2.14 ± 0.094

DWQRRFAQIMIRGFNVILVT
amyloid nucleation score: 0.097 ± 1.1

FYMYAFNYYSFY
amyloid nucleation score: 2.91 ± 0.086

RHGVMLGAVGVGSNDGSFLS
amyloid nucleation score: 2.29 ± 0.28

SCWRRMSSITPG
amyloid nucleation score: 1.68 ± 0.47

VLTLPKRNHVHL
amyloid nucleation score: 0.874 ± 0.35

KADLRKHSLDIGSCADGIRI
amyloid nucleation score: 0.416 ± 0.8

CNRCIQRMRASMTDSVFSGV
amyloid nucleation score: -1.35 ± 0.49

FLAILWLFMLGKVSGCVDKW
amyloid nucleation score: -0.155 ± 0.49

TYRSEYCICLLLSAFFQMKG
amyloid nucleation score: -1.08 ± 1.1

GSRVALLNMGGK
amyloid nucleation score: -0.512 ± 0.79

HIKDNQSSSV
amyloid nucleation score: 0.196 ± 0.44

HIFFTDKFGGYVFLYPDFVA
amyloid nucleation score: inactive

HFITCFLDRHGALVCYCSES
amyloid nucleation score: 4.76 ± 0.11

AHQHWQRGFEEHPEIRFIHW
amyloid nucleation score: 4.29 ± 0.11

FNGSYASILKTSNRDTFDAL
amyloid nucleation score: 0.61 ± 0.15

TSNRRTYGWHDQTCGQGVWY
amyloid nucleation score: 1.1 ± 0.29

YLSLVKSPLSSLNSFWTWM
amyloid nucleation score: -0.348 ± 0.23

NWIPSI
amyloid nucleation score: -0.817 ± 0.41

LGPCSVIGQMVMYDRYGLLD
amyloid nucleation score: -0.313 ± 0.76

LCPYR
amyloid nucleation score: -0.776 ± 1.1

KSRPSTV
amyloid nucleation score: -1.68 ± 1

DSVGMVRTLVWDWGQATNGR
amyloid nucleation score: 0.953 ± 0.51

AHHLSFGVNDCSTCERSVQ
amyloid nucleation score: 0.77 ± 0.28

NFWMVPLIA
amyloid nucleation score: -0.541 ± 0.79

TASKILSGIASYDSRIIQPE
amyloid nucleation score: -0.447 ± 0.23

VTKVCGYLEFSMQVYRCVFH
amyloid nucleation score: inactive

ETRRSYV
amyloid nucleation score: 0.563 ± 0.38

SQIRFWSRPRDCFGFLMRYV
amyloid nucleation score: -0.852 ± 1

CVICDNYFILEAVF
amyloid nucleation score: -0.771 ± 1.1

IVRWCLLIIIF
amyloid nucleation score: inactive

TMWGNI
amyloid nucleation score: -1.59 ± 0.48

NYSVWVIPVFMDEHIVLFMY
amyloid nucleation score: 5.8 ± 0.071
